According to PMC7366381:

Substrate: O=CO
Experiment: purified protein
Settings: 1 mM benzyl viologen, pH 7.5, 25 °C, anaerobic, buffer 50 mM phosphate or 25 mM MES/TAPS/HEPES/K acetate (Figure 3 legend)

B1: EcFDH-H (FDH) (Escherichia coli K-12) (protein)
chain: MKKVVTVCPYCASGCKINLVVDNGKIVRAEAAQGKTNQGTLCLKGYYGWDFINDTQILTPRLKTPMIRRQRGGKLEPVSWDEALNYVAERLSAIKEKYGPDAIQTTGSSRGTGNETNYVMQKFARAVIGTNNVDCCARVUHGPSVAGLHQSVGNGAMSNAINEIDNTDLVFVFGYNPADSHPIVANHVINAKRNGAKIIVCDPRKIETARIADMHIALKNGSNIALLNAMGHVIIEENLYDKAFVASRTEGFEEYRKIVEGYTPESVEDITGVSASEIRQAARMYAQAKSAAILWGMGVTQFYQGVETVRSLTSLAMLTGNLGKPHAGVNPVRGQNNVQGACDMGALPDTYPGYQYVKDPANREKFAKAWGVESLPAHTGYRISELPHRAAHGEVRAAYIMGEDPLQTDAELSAVRKAFEDLELVIVQDIFMTKTASAADVILPSTSWGEHEGVFTAADRGFQRFFKAVEPKWDLKTDWQIISEIATRMGYPMHYNNTQEIWDELRHLCPDFYGATYEKMGELGFIQWPCRDTSDADQGTSYLFKEKFDTPNGLAQFFTCDWVAPIDKLTDEYPMVLSTVREVGHYSCRSMTGNCAALAALADEPGYAQINTEDAKRLGIEDEALVWVHSRKGKIITRAQVSDRPNKGAIYMTYQWWIGACNELVTENLSPITKTPEYKYCAVRVEPIADQRAAEQYVIDEYNKLKTRLREAALA
Km (labelled compound): 158 ± 8 µM
Km (two highest formate points neglected in fit): 58 ± 8 µM
